The source of these data is PMC5716075, “Conserved asymmetry underpins homodimerization of Dicer-associated double-stranded RNA-binding proteins” (Nucleic Acids Research, 2017).

B1: PACT-D3 (PACT residues 239-313, core dsRBD 3), wild type [human] / itself (parent)
chain: TDYIQLLSEIAKEQGFNITYLDIDELSANGQYQCLAELSTSPITVCHGSGISCGNAQSDAAHNALQYLKIIAERK
B2: PACT-Ext-D3 (PACT residues 208-313, dsRBD 3 with the conserved N-terminal extension), wild type [human] / itself (parent)
chain: GHSLGCTWHSLRNSPGEKINLLKRSLLSIPNTDYIQLLSEIAKEQGFNITYLDIDELSANGQYQCLAELSTSPITVCHGSGISCGNAQSDAAHNALQYLKIIAERK
B3: Loqs-D3 (Loquacious residues 392-463, dsRBD 3), wild type [Drosophila] / itself (parent)
chain: IDYIKLLGEIATENQFEVTYVDIEEKTFSGQFQCLVQLSTLPVGVCHGSGPTAADAQRHAAQNALEYLKIMT

The variants in the first assay derive from B1. As to the kind of experiment: SEC-MALLS. The following applies: with itself.
In the case of chain 1 L35R, the screen value amounted to 8.8 kDa.

Variants of B2 are the subject of the next assay. As to the kind of experiment: SEC-MALLS. The following applies: with itself.
chain 1 L66R: the screen value was found to be 12.3 kDa.

Variants of B3 are the subject of the next assay. As to the kind of experiment: SEC-MALLS. The following applies: with itself.
As for chain 1 L35R, the screen value came to 8 kDa.
